Laboratory results taken from publication PMC2569942.

Biological target: prophagic Cu,Zn superoxide dismutase SodC-F1 of E. coli O157:H7 (soluble recombinant mature enzyme from pO157-ΔCys) (E. coli O157:H7 EDL933)
Experiment: SEC

## prophagic Cu,Zn superoxide dismutase SodC-F1 of E. coli O157:H7 (soluble recombinant mature enzyme from pO157-ΔCys)
  stoichiometry N: 2
